Reference: patent US12398179
pIC50: −log10 of the molar value.

Molecular target: EphA2 extracellular domain fused to the Fc portion of an antibody (EphA2 Fc)
Experiment: ELISA, inhibition of ephrin-A5 AP binding to immobilized EphA2 Fc; representative experiment; concentrations in nM

EphA2 extracellular domain fused to the Fc portion of an antibody (EphA2 Fc), sequence (P29317 whole entry, the tested form may be a part): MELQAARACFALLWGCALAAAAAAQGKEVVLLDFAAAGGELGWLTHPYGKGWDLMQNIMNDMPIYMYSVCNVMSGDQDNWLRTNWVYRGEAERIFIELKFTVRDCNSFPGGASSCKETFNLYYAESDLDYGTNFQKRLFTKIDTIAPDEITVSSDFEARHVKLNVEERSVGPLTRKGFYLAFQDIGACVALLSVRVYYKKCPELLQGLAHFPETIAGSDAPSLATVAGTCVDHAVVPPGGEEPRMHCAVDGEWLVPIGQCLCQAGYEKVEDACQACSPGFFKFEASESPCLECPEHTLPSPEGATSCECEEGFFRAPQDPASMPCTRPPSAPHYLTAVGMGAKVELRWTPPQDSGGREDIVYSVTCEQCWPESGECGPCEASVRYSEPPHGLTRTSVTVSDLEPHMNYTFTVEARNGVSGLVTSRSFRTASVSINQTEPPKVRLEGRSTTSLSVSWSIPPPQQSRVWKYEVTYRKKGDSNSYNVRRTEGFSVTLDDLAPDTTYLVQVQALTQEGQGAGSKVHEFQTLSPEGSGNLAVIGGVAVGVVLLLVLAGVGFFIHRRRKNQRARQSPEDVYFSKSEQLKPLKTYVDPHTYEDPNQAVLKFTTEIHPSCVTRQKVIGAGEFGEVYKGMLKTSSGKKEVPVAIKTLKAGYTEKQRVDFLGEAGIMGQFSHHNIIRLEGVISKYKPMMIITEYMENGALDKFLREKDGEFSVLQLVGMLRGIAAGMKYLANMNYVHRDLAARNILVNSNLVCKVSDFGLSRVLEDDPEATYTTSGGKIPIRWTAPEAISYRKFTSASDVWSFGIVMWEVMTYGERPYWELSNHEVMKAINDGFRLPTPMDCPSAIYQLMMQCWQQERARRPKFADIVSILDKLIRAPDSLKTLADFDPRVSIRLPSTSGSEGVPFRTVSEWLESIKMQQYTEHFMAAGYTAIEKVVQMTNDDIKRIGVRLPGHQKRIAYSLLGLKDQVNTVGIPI

Substance	pIC50
YSA1-10am (peptide)	5.46
YSA-K-bio (peptide)	5.55
